US20260042834A1 (HBM ALPHA THERAPEUTICS, published 2026)
Numbering of substitutions follows the chain as printed. Values joined by “and” are separate entries in the source; they are usually repeats but may differ in a detail not shown here. Identical values can stand only once. Each block holds one binder with its values, some of them ahead of it.

How the values were obtained:
human UCN3 peptide = molecular target: T1, human UCN3 peptide (human, UniProt Q969E3 120-157, not fully specified; biotin at N- or C-terminus in the ELISA); assay: ELISA on streptavidin-captured hUCN3 (NT biotin) and hUCN3 (CT biotin), mAb at 100 nM and 10 nM, OD450
T1 construct: also called hUCN3; hUCN3 (NT Biotin)
T1 peptide (looked up): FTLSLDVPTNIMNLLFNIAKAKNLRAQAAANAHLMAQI
Procedure: (§1) Streptavidin (Thermo, Cat: 21125) was diluted in PBS with a concentration of 2 μg/mL. 100 μL of diluted streptavidin was added per well to ELISA microplates, and the plates were incubated overnight at 4° C. Plates were blocked with ELISA blocking solution (containing 2% w/v BSA, 0.05% (v/v) Tween-20, pH 7.4 PBS buffer) at 37° C. for 1 hour, and then incubated with either 1 μg/mL hUCN1 (NT Biotin), hUCN1 (CT Biotin), hUCN2 (NT Biotin), hUCN2 (CT Biotin), hUCN3 (NT Biotin), or hUCN3 (CT Biotin) for 1 hour at 37° C. […] 100 μl of TMB Substrate (Biopanda, Cat: TMB-S-003) was added, and the plates were incubated at room temperature for 15 minutes. 100 μL of ELISA stopping solution (Solarbio, Cat #: C1058) was then added to terminate the reaction, and the OD450 nm was determined by an ELISA plate reader (Molecular Devices, Spectra max 384 plus).

human UCN2 peptide [1] = molecular target: T2, human UCN2 peptide (human, UniProt Q96RP3 72-109, limits assumed, not fully specified; biotin at N- or C-terminus in the ELISA); assay: ELISA on streptavidin-captured hUCN2 (NT biotin) and hUCN2 (CT biotin), mAb at 100 nM and 10 nM, OD450
T2 construct: also called hUCN2; hUCN2 (NT Biotin)
T2 peptide (looked up): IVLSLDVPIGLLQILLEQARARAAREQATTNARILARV
Procedure: as §1

biotinylated CRH = molecular target: T3, biotinylated CRH (human and mouse, not fully specified; biotinylated, position not stated); assay: Octet BLI, biotinylated CRH on SA sensor
T3 construct: also called Biotin-CRH; biotin-labeled CRH
T3 peptide: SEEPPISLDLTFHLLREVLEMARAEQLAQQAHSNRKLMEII
Procedure: Octet® Red 96e was used for affinity measurement. Octet® running buffer was prepared by diluting kinetics buffer 10× (Fortebio, Cat #18-1105) in PBS according to the manufacturer's instructions. Two columns of SA sensors (Fortebio, Cat #18-5019) were hydrated in running buffer for 10 mins, one for ligand capturing and the other for reference. Antibodies were 2-fold diluted and added into a 96-well plate. […] After a 60-second baseline step, sensors were dipped into analyte and buffer wells successively, with the association and dissociation time of 180 seconds and 800 seconds, respectively. […] Signals of reference wells and reference sensors were subtracted by selecting “Double reference” before data fitting.

[2] = molecular target: T4, corticotropin-releasing hormone (CRH) peptide (human and mouse, not fully specified); assay: cell-based or functional assay
T4 peptide: T3 peptide

hUCN1 (NT Biotin) = molecular target: T5, hUCN1 (NT Biotin) (human, UniProt P55089 83-122, biotin at the N-terminus); assay: ELISA, biotin peptide on streptavidin plate
T5 construct: also called human UCN1 (NT biotin)
T5 peptide (looked up): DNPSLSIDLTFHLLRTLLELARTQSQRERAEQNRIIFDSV
Procedure: (§2) Streptavidin (Thermo, Cat: 21125) was diluted in PBS to a concentration of 2 μg/ml. 100 μl of diluted streptavidin was added per well to ELISA microplates, and the plates were incubated overnight at 4° C. […] 100 μL of 3,3′,5,5′-tetramethylbenzidine (TMB) substrate (Biopanda, Cat: TMB-S-003) was added, and the plates were incubated at room temperature for 15 minutes. 100 μL of ELISA stopping solution (Solarbio, Cat #: C1058) was added to terminate the reaction, and the optical density at 450 nm (OD450 nm) was determined by an ELISA plate reader (Molecular Devices, Spectra max 384 plus).

CRH (NT Biotin) = molecular target: T6, CRH (NT Biotin) (human and mouse, not fully specified; biotin at the N-terminus); assay: ELISA, biotin peptide on streptavidin plate
T6 peptide: T3 peptide
Procedure: as §2

CRH (CT Biotin) = molecular target: T7, CRH (CT Biotin) (human and mouse, C-terminal K-Biotin); assay: ELISA, biotin peptide on streptavidin plate
T7 construct: also called Peptide 4 (CRH-Biotin)
T7 peptide: T3 peptide
Procedure: as §2

N-Terminal CRH = molecular target: T8, N-Terminal CRH (human and mouse, C-terminal K-Biotin); assay: ELISA, biotin peptide on streptavidin plate
T8 construct: also called N-Ter-CRH (CT-Bion)
T8 peptide: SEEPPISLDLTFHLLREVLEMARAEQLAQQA
Procedure: as §2

human UCN1 peptide = molecular target: T9, human UCN1 peptide (human, UniProt P55089 83-122); assay: cell-based or functional assay
T9 peptide (looked up): T5 peptide (looked up)

hUCN1 (CT Biotin) = molecular target: T10, hUCN1 (CT Biotin) (human, UniProt P55089 83-122, biotin at the C-terminus); assay: ELISA, biotin peptide on streptavidin plate
T10 construct: also called human UCN1 (CT biotin)
T10 peptide (looked up): T5 peptide (looked up)
Procedure: as §2

human UCN2 peptide [3] = molecular target: T2, human UCN2 peptide; assay: ELISA on streptavidin-captured hUCN2 (NT biotin) and hUCN2 (CT biotin), mAb at 100 nM and 10 nM; axis labelled RLU, scale 0-4
Procedure: as §1

B1: PR005660 (antibody, human IgG1, kappa, V domains shown)
VH: EVQLVESGGVLVQPGGSLRLSCAASGFTFSSYWMTWVRQAPGKGLEWVANIKQEGSEKYYVDSVKGRFTISRDNAKNSLFLQMNSLRAEDTAVYYCARTLIFDYWGQGTLVTVSS
VL: DIVMTQSPLSLPVTPGEPASISCRSSQSLLHSTGYQSLEWYLQKPGQSPQLLIYLGSNRASGVPDRFSGSGSGTDFTLKISRVEAEDVGIYYCMQTLQTPITFGQGTRLEIKR
notes: PTM-removal variant of PR004290
binding result (human UCN3 peptide): no binding (tested: 100 nM)
binding result (human UCN2 peptide [1]): no binding (tested: 100 nM)
Kd (biotinylated CRH): 0.12 nM and 0.0409 nM
CHO-CRE-hCRHR1 0.5 nM CRH IC50 [2]: 10.3 nM
EC50 (hUCN1 (NT Biotin)): 9.37 nM
EC50 (CRH (NT Biotin)): 0.028 nM
EC50 (CRH (CT Biotin)): 0.054 nM
EC50 (N-Terminal CRH): 0.076 nM

B2: PR303394 (antibody, human IgG1, kappa, V domains shown)
VH: EVQLQQSGPELVKPGVSMKISCKASGYSFTDSTMNWVKQSHGKNLEWIGLIHPDNGGTIYNQKFKGKATLTVHKSSSTAYMELLSLTSEDSAVYYCANGFAYWGQGTLVTVSA
VL: DVVMTQTPLSLPVSLGDQASISCRSSQSLLHSNGNTYLHWYLQKPGQSPELLIYKVSNRFSGVPDRFSGSGSGTDFTLKISRVEAEDLGVYFCSQSTHVPLTFGAGTKLELKR
notes: also called analog of CTRND05
binding result (human UCN3 peptide): no binding (tested: 100 nM)
binding result (human UCN2 peptide [1]): no binding (tested: 100 nM)
Kd (biotinylated CRH): 0.0136 nM
CHO-CRE-hCRHR1 1 nM hUCH1 IC50 (human UCN1 peptide): 42.5 nM
CHO-CRE-hCRHR1 0.5 nM CRH IC50 [2]: 2.77 nM
EC50 (hUCN1 (CT Biotin)): 0.022 nM
EC50 (hUCN1 (NT Biotin)): 0.018 nM
EC50 (CRH (NT Biotin)): 0.028 nM

B3: PR302341-28 (antibody, human IgG1, kappa, V domains shown)
VH: QVQLVQSGAEVKKPGASVKVSCKASGYTFTDYFMKWVRQAPGQGLEWMGVINPNQGDIFYNQKFKGRVTMTVDKSISTAYMELSRLRSDDTAVYYCARGTDRALFAYWGQGTLVTVSS
VL: DVVMTQSPLSLPVTLGQPASISCRSGQSIVHSDGNTYLEWYQQRPGQSPRLLIYKVSNRFSGVPDRFSGSGSGTDFTLKISRVEAEDLGVYYCFQGSHIPWTFGGGTKVEIKR
notes: Humanized, PTM-removed variant of PR302341
Kd (biotinylated CRH): < 0.001 nM
koff (biotinylated CRH): < 1e-07 s⁻¹
kon (biotinylated CRH): 2.63e+06 M⁻¹ s⁻¹
CHO-CRE-hCRHR1 1 nM hUCH1 IC50 (human UCN1 peptide): 33 nM
hUCN1 IC50/ CRH IC50 (human UCN1 peptide): 124 fold
CHO-CRE-hCRHR1 0.5 nM CRH IC50 [2]: 0.267 nM
binding result (human UCN2 peptide [3]): no binding (tested: 100 nM)
EC50 (hUCN1 (CT Biotin)): 0.032 nM
EC50 (hUCN1 (NT Biotin)): 0.026 nM
EC50 (CRH (NT Biotin)): 0.052 nM
EC50 (CRH (CT Biotin)): 0.037 nM

B7: PR302341-55 (antibody, human IgG1, kappa, V domains shown)
VH: B3 VH with G44R, Q55N, G56A, M70I, V72R, K74T, I76A, R85S, D89E
VL: B3 VL
notes: as for B3
Kd (biotinylated CRH): < 0.001 nM
koff (biotinylated CRH): < 1e-07 s⁻¹
kon (biotinylated CRH): 1.2e+06 M⁻¹ s⁻¹
CHO-CRE-hCRHR1 1 nM hUCH1 IC50 (human UCN1 peptide): 28 nM
hUCN1 IC50/ CRH IC50 (human UCN1 peptide): 267 fold
CHO-CRE-hCRHR1 0.5 nM CRH IC50 [2]: 0.105 nM
binding result (human UCN2 peptide [3]): no binding (tested: 100 nM)
EC50 (hUCN1 (CT Biotin)): 0.018 nM
EC50 (hUCN1 (NT Biotin)): 0.013 nM
EC50 (CRH (NT Biotin)): 0.022 nM
EC50 (CRH (CT Biotin)): 0.019 nM

The remaining binders from weak to strong by EC50 (hUCN1 (NT Biotin)), led by results:

binding result (human UCN3 peptide): no binding (tested: 100 nM)
binding result (human UCN2 peptide [1]): no binding (tested: 100 nM)
Kd (biotinylated CRH): 0.0551 nM
koff (biotinylated CRH): 8.48e-06 s⁻¹
kon (biotinylated CRH): 154000 M⁻¹ s⁻¹
CHO-CRE-hCRHR1 0.5 nM CRH IC50 [2]: 2.12 nM
EC50 (hUCN1 (CT Biotin)): 0.451 nM
EC50 (hUCN1 (NT Biotin)): 0.078 nM
EC50 (CRH (NT Biotin)): 0.032 nM
EC50 (CRH (CT Biotin)): 0.032 nM
EC50 (N-Terminal CRH): 0.028 nM
B4: PR302309-11 (antibody, human IgG1, kappa, V domains shown)
VH: QIQLVQSGSELKKPGASVKVSCKASGYTFTNYGMNWVRQAPGQGLEWMGWINTYTGEPIYTDDFKGRFVFSLDTSVSTAYLQISSLKAEDTAVYYCSRSTMITTGGVFAYWGQGTLVTVSS
VL: B3 VL with V2I, S7T, L11S, G26S, S28T, Y41L, S48P, S72A, L88V, I99V
notes: Humanized variant of PR302309

Kd (biotinylated CRH): 0.0142 nM
koff (biotinylated CRH): 3.35e-05 s⁻¹
kon (biotinylated CRH): 2.49e+06 M⁻¹ s⁻¹
CHO-CRE-hCRHR1 1 nM hUCH1 IC50 (human UCN1 peptide): 71 nM
hUCN1 IC50/ CRH IC50 (human UCN1 peptide): 81 fold
CHO-CRE-hCRHR1 0.5 nM CRH IC50 [2]: 0.878 nM
binding result (human UCN2 peptide [3]): no binding (tested: 100 nM)
EC50 (hUCN1 (CT Biotin)): 0.036 nM
EC50 (hUCN1 (NT Biotin)): 0.026 nM
EC50 (CRH (NT Biotin)): 0.043 nM
EC50 (CRH (CT Biotin)): 0.036 nM
B6: PR302341-60 (antibody, human IgG1, kappa, V domains shown)
VH: B3 VH with G44R, M70I, V72R, K74T, I76A, R85S, D89E
VL: B3 VL with G34A
notes: as for B3

Kd (biotinylated CRH): < 0.001 nM
koff (biotinylated CRH): < 1e-07 s⁻¹
kon (biotinylated CRH): 1.04e+06 M⁻¹ s⁻¹
CHO-CRE-hCRHR1 1 nM hUCH1 IC50 (human UCN1 peptide): 30 nM
hUCN1 IC50/ CRH IC50 (human UCN1 peptide): 59 fold
CHO-CRE-hCRHR1 0.5 nM CRH IC50 [2]: 0.507 nM
binding result (human UCN2 peptide [3]): no binding (tested: 100 nM)
EC50 (hUCN1 (CT Biotin)): 0.023 nM
EC50 (hUCN1 (NT Biotin)): 0.017 nM
EC50 (CRH (NT Biotin)): 0.045 nM
EC50 (CRH (CT Biotin)): 0.028 nM
B5: PR302341-48 (antibody, human IgG1, kappa, V domains shown)
VH: B3 VH with I76T, R85S, D89E
VL: B3 VL with S7T, L11S, G34A, S48P, S72A
notes: as for B3
